According to paper PMC6282176:

Biological target: C-terminally truncated fragment of DdSkp1 (residues 1–122) (Dictyostelium discoideum) (UniProt P52285)
Assay: AUC

stoichiometry N: 2
Substance: C-terminally truncated fragment of DdSkp1 (residues 1–122) (from UniProt P52285 1-122) (domain or fragment)
